Legend:
[1] = biological target: T1, recombinant human FGFR3 IIIc Fc fusion protein (human, UniProt P22607 23-375); assay: kinetic exclusion assay (KinExA), antibody and rhFGFR3 IIIc Fc in solution, room temperature
T1 construct: Bought reagent; also called rhFGFR3 IIIc Fc; not shown: Fc fragment (removable by Factor Xa)
T1 sequence (looked up): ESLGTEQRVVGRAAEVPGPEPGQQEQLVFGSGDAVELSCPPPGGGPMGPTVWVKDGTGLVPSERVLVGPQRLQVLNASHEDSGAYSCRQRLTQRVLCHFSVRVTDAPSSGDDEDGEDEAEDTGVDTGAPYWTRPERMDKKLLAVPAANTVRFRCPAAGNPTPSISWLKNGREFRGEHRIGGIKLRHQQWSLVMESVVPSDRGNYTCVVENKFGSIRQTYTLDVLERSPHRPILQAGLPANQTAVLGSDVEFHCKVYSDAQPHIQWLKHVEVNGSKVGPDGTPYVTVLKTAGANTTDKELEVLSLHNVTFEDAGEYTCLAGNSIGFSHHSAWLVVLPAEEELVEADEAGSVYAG
Procedure: The binding affinities of monoclonal 15D8, chimeric 15D8, and humanized 15D8 antibodies for recombinant human FGFR3 IIIc Fc fusion protein was measured using a kinetic exclusion assay, KinExA® technology (Sapidyne Instruments, Inc.). First, beads were prepared for the purpose of detecting anti-FGFR3 antibody that is unbound to FGFR3 IIIc Fc. This was done by adding 1 ml recombinant human FGFR3IIIc Fc (R&D Systems, Inc.) 10 ug/ml in PBS to 200 mg polymethyl methacrylate (PMMA) hard beads. The suspension was mixed and rotated for two hours at room temperature. Next, the mixture was centrifuged and supernatant was discarded. The bead pellet was rinsed once with 1 ml BSA 10 mg/ml in PBS by incubation for 1 hour at room temperature with rotation. The beads were resuspended in 27 ml PBS with 0.02% NaN₃. Next, a fixed concentration of anti-FGFR3 antibody (0.5 nM) was incubated in solution with a series of FGFR3 IIIc Fc concentrations (started with 50 nM (in PBS BSA (1 mg/ml)) and serially diluted 1:2 in PBS BSA(1 mg/ml) to obtain 50 to 0.0122 nM FGFR3 III Fc) at room temperature for at least 4 hours to allow equilibrium to be reached. By measuring the amount of anti-FGFR3 antibody that is not bound to FGFR3 IIIc Fc, the KD was determined. Unbound anti-FGFR3 antibody was detected by allowing the anti-FGFR3 antibody/FGFR3 IIIc Fc solution to flow through the FGFR3 IIIc Fc PMMA beads. The anti-FGFR3 antibody captured by these beads was then detected with Cy5-conjugated anti-human secondary antibody 0.3 ug/ml (Jackson ImmunoResearch) or Cy5-conjugated anti-mouse secondary antibody (Jackson ImmunoResearch) 0.5 ug/ml in PBS BSA 1 mg/ml. The detected signal for captured anti-FGFR3 antibody is directly proportional to the remaining free binding sites, thus allowing KD determination. The experiments were repeated, varying the concentrations of anti-FGFR3 antibody or FGFR3 III Fc used in solution, and the KD was calculated with the KinExA® software using n-curve analysis.

[2] = biological target: T2, recombinant human FGFR3 IIIb Fc fusion protein (human, UniProt P22607-2 23-377, limits assumed); assay: ECL competition assay: inhibition of rhFGFR3 IIIb Fc binding to coated FGF1 (competitor FGF1); 15D8 IgG1, not Fab; average of n = 3
T2 construct: Bought reagent; the IIIb splice isoform is meant; also called rhFGFR3 IIIb Fc; hFGFR3 IIIb; not shown: Fc fragment (removable by Factor Xa, detected with anti-human IgG)
T2 sequence (looked up): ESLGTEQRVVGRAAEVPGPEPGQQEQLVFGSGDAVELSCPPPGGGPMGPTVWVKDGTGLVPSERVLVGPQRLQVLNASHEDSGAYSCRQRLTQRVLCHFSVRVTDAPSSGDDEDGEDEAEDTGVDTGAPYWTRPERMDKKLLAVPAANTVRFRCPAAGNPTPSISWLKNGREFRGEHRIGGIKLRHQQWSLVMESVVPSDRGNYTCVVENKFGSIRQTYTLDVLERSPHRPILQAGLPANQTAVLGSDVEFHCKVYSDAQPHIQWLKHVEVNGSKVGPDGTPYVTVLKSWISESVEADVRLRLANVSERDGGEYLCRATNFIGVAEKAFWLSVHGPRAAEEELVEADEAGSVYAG
Procedure: The antibodies were tested by ECL (Electrochemiluminescence) assay for inhibition of hFGFR3 IIIB binding to FGF-1. […] The plates then were washed 3 times with PBS and blocked with 200 μl of PBS containing 5% BSA (Sera Care Life Sciences, Catalog No. AP-4510-80) and 5 μg/mL heparin (Sigma, Catalog No. H4784) for 1 hour at room temperature. The antibodies (concentration range: 0.029-30 μg/mL) were incubated for 1 hour at room temperature with 1.7 μg/mL rhFGFR3 IIIb Fc (R&D Systems, Catalog No. 1264-FR-050) and 5 μg/mL heparin. After washing the plates 3 times with PBS, 25 μl of the antibody-receptor mixture was added to the plates for another hour at room temperature with agitation. The plates were washed three times with PBS and incubated with 25 μl of 1 μg/mL ST-anti-human IgG antibody (Meso Scale Discovery, Catalog No. R32AJ-1) for 1 hour at room temperature with agitation. The plates then were washed 3 times with PBS, and 150 μl of 1× read buffer (Meso Scale Discovery, Catalog No. R92TC-1) was added to each well before the plates were analyzed on a Sector Imager 2400 (Meso Scale Discovery) instrument.

- Kd [1]: 0.0806 nM
- IC50 [2]: 15.4 nM
B1: anti-FGFR3 monoclonal antibody 15D8 (antibody, mouse IgG1, kappa)
heavy: EIQLQQSGPELVKPGASVKVSCKASGYAFTSYNMYWVKQSHGKSLEWIGYIDPYNGGTSYNQKFKGKATLTVDKSSSTAYMHLNSLTSEDSAVYYCAREGGNYEAWFAYWGQGTLVTVSAAKTTPPSVYPLAPGSAAQTNSMVTLGCLVKGYFPEPVTVTWNSGSLSSGVHTFPAVLQSDLYTLSSSVTVPSSTWPSETVTCNVAHPASSTKVDKKIVPRDCGCKPCICTVPEVSSVFIFPPKPKDVLTITLTPKVTCVVVDISKDDPEVQFSWFVDDVEVHTAQTQPREEQFNSTFRSVSELPIMHQDWLNGKEFKCRVNSAAFPAPIEKTISKTKGRPKAPQVYTIPPPKEQMAKDKVSLTCMITDFFPEDITVEWQWNGQPAENYKNTQPIMDTDGSYFVYSKLNVQKSNWEAGNTFTCSVLHEGLHNHHTEKSLSHSPGK
light: QIVLTQSPALMSASPGEKVTMTCSASSSVSYMYWYQQKPRSSPKPWIYLTSYLASGVPARFSGSGSGTSYSLTISSMEAEDAATYYCQQWSSYPLTFGAGTKLELKRADAAPTVSIFPPSSEQLTSGGASVVCFLNNFYPKDINVKWKIDGSERQNGVLNSWTDQDSKDSTYSMSSTLTLTKDEYERHNSYTCEATHKTSTSPIVKSFNRNEC
notes: also called 15D8 IgG1; murine antibody 15D8
